Substitutions are numbered along the chain they refer to.
B1: Strep-Tag-II BR_(187–385) (KRT10-binding domain of the pneumococcal serine-rich repeat protein PsrP) (domain or fragment)
chain: FSGNTIVNGAPAINASLNIAKSETKVYTGEGVDSVYRVPIYYKLKVTNDGSKLTFTYTVTYVNPKTNDLGNISSMRPGYSIYNSGTSTQTMLTLGSDLGKPSGVKNYITDKNGRQVLSYNTSTMTTQGSGYTWGNGAQMNGFFAKKGYGLTSSWTVPITGTDTSFTFTPYAARTDRIGINYFNGGGKVVESSTTSQSLS
notes: also called STII-BR_(187–385); WT-BR_(187–385)
B2: KRT10 tail-rod-2B domain (KRT10-TRD) (domain or fragment)
chain: LKQSLEASLAETEGRYCVQLSQIQAQISALEEQLQQIRAETECQNTEYQQLLDIKIRLENEIQTYRSLLEGEGSSGGGGRGGGSFGGGYGGGSSGGGSSGGGHGGGHGGSSGGGYGGGSSGGGSSGGGYGGGSSSGGHGGSSSGGYGGGSSGGGGGGYGGGSSGGGSSSGGGYGGGSSSGGHKSSSSGSVGESSS
notes: Keratin-10 (KRT10), tail-rod-2B domain, residues 385-579, Uniprot ID P13645; source: expressed from pET21d, soluble, purified (IMAC, anion exchange)

Columns and labels:
Conditions in all cases: both partners purified
[1] = biological target: T1, KRT10 rod domain (KRT10-ROD) (human, UniProt P13645 137-448, M150L); assay: ELISA; KRT10 constructs coated on Nunc C96 plates (coating adjusted to KRT10-TRD at about 5 µg/ml), 2% BSA block; STII-BR_(187–385) 23 nM to 3 µM in PBS; detected with Strep-Tactin HRP; four-parameter logistic fit
T1 construct: Keratin-10 (KRT10), rod domain, residues 137-448, Uniprot ID P13645; M150L introduced to prevent second translation initiation; source: expressed from pET21d, purified as inclusion bodies, anion exchange in 6 M urea, dialysed against urea-free buffer
T1 sequence: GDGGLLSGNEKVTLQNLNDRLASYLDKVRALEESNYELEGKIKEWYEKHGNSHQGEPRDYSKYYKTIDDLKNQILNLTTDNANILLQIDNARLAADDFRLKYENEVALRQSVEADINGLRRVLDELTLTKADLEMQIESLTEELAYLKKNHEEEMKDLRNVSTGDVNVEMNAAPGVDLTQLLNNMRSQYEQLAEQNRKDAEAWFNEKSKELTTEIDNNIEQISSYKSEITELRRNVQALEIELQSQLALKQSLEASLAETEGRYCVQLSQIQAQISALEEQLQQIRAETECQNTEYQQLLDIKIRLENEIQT

[2] = biological target: B2; assay: as above
[3] = biological target: T2, full-length keratin-10 (KRT10-FL) (human, UniProt P13645 1-584); assay: as above
T2 construct: Keratin-10 (KRT10), residues 1-584, Uniprot ID P13645; also called KRT10-full-length; full-length KRT10; source: expressed from pET21d, purified as inclusion bodies, anion exchange in 6 M urea, dialysed against urea-free buffer
T2 sequence (looked up): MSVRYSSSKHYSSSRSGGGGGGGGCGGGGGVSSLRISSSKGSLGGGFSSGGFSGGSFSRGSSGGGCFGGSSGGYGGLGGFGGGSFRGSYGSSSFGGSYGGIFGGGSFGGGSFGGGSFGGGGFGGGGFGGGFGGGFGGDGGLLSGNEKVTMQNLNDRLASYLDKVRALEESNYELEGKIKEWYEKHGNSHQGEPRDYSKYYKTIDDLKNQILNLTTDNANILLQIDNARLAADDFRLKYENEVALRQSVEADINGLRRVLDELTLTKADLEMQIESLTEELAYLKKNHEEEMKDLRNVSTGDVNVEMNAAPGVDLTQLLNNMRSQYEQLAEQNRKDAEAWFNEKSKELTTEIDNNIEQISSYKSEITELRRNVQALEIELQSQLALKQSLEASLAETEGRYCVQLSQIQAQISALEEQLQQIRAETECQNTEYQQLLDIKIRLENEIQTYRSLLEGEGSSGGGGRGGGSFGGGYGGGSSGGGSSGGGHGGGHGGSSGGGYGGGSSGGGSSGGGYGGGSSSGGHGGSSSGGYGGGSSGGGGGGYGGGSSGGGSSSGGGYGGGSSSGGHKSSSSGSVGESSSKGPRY

[4] = biological target: T3, N321A-BR_(187–385) (S. pneumoniae TIGR4, UniProt A0A0H2URK1 186-384, N321A); assay: ELISA; KRT10-TRD coated; WT-BR_(187–385) and mutated variants at a single concentration of 1 µM; detected with Strep-Tactin HRP; normalised intensities
T3 construct: PsrP, S. pneumoniae TIGR4, residues 187-385, with N321A; source: expressed from pET21d; purification of the mutants not detailed (SEC mentioned)
T3 sequence: B1 chain with N135A

[5] = biological target: T4, K231A-BR_(187–385) (S. pneumoniae TIGR4, UniProt A0A0H2URK1 186-384, K231A); assay: as above
T4 construct: PsrP, S. pneumoniae TIGR4, residues 187-385, with K231A; also called control K231A-BR_(187–385); source: expressed from pET21d; purification of the mutants not detailed (SEC mentioned)
T4 sequence: B1 chain with K45A

Binder	EC50 [1] [nM]	EC50 [2] [nM]	EC50 [3] [nM]	binding result [4]	binding result [5]
B1	~1800	345	345	–	–
B2	–	–	–	binds	binds
